# From a protein production outcome set (Wang et al. 2014)
# Assay: label from the status in PepcDB records
# 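Further: failed if final PepcDB status was selected cloned or expressed and not failed if soluble or beyond.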
row,Sequence,protein production
1,TACKGDYKDAARQVRCGTLVVDETRGDPKSRRITVAVAIVKASEPKAGQPPVVYLHGGPGGSAVGGLPRMLKSKAALEYVAVDQDWIFIDQRGGGQSDPNLDCPGANLTDAGPPSDKDAQAIIACMKAFQAKGVNLSRYNAVEVAKDVQDLRKLLKLPLIDLYGGSYGTRIEAAIQTHAAEGVRAVVQDSPWPPEADWTVGGPAMVSSSIDIVMAKCAKVAECAKRYPDLKAKLAVVAERWLAGPQTINGKTYTADDLGGWLMDASYFTASVLPRDLWKIIEGDVSPVAEFVESRDYYSEGQFMTHLCKEEIPFEARAAVADGTQKDPIARLMVASMQRIHDVCAAIDVGPINKVEQAPVKTAIPTLFLAAEIDPGCPPELTRAAAKGYQGSQVVIVTNATHGVSRSSPCVRKMIRSFFQDPTKPVDRSCLPAADTPMAFMYQ,failed
2,TAEEVVTVALRCPSGNVLRRRFLKSYSSQVLFDWMTRIGYHISLYSLSTSFPRRPLAVEGGQSLEDIGITVDTVLILEEKE,failed
3,TDGEGEDPAEYPTVNHKIEKAIEVTKTGLEEYENPVVMWTGGKDSTLTLYFVKEVAERFDLEVPPVVFIDHYQHFDELIDFVEHWADEWDLDVIWARNEDVGNYVDENGLEPGDDIPVDELSEHNQHHIRNILEYEEDTFPFLLDTYVGNHLLKTVALNDTIEEHDVDGILSGIRWDEQESRADETFFSPRHDPDIYPPHDRIQSILQFAEADVWEAFWNFVVPDTVEGYPDEGYVPQGQDDLPEGIEKEDVPVSPKYFAGFRSLGSE,failed
4,TDLPMPRVTVFALWEPLAIMRELWAEGGIGPGRLAVMDRVKGPKTGLLMRHQDKPGGVAFVAIHDGVAMLHALEIPPHQRRKGLGKWAMRGAAFWALDNGAHTLSVICTKANEGANALYRSLGMQLVGEYHYRLLQE,failed
5,TELQAVTGRAEIAGERLKLLYDAGLGIGTTLDVLRTADELAQVAVPRFADFVTVDLADAVLHGEEPAPTATDLRRTAVCGIRDDHPLYELGQLIDFLPSTPQARGYGSGYSELVTDLSTATGWHAQDPERTKAIIDYGIHSLIAAPIQARGVVLGMANFWRSKQHEPFVEEEMSLAEELVARAAVSIDNARRYTREHALAVTLQRSLLPRALP,failed
6,TGEREYIKKLEPMLKELGWWGKAKDENGNEVQLGSPRRLRTILRTNKITAYHAARYAQQMENVDEQPYWRYVAVNDSRTRASHLALHGKIYRADDPIWQTMYPPNDWGCRCRVEALS,failed
7,THSETITIPVFDTQVAGTLLTPRAKLPGVLFVHGWGGSQRFDLSRARDIAGLGCICLTFDLRGHAATEAQRRQVTREDSLRDIMAAYDALIAHPAVDTSAIAVVGSSYGGYLAAILTTLRAVRWLALHVPALYRDDEWAQPKLQLDRAAISAYRHATVAPEGNRALSACSSFRGDVLIVEAEHDDYIPHSTIMSYRGAFLHSHSLTHRIVDGADHALSDKRCQQAYSSILLNWATEMV,failed
8,TIDIDLQKKVESLLEKQISKLRSQGAKDMDNALMVVQNPKNGDILAIAGKQIDKQGKLKDYDIGNFTAQYTVGSSVKGGTLLAGYQNKAINVGETMVDEPLKFQGGLTKRSYFNKNGHVSIDDKQALMHSSNVYMFKTALKLAGDPYTSGMSLPNNIADAGRKLRKGLNQVGLGLKTGIDLPNETPGQIEPLTNNPGNYLDLAIGQYDTYTPLQLSQYVSTIANDGYRIQPHIGLSIYESTNKDETGPLKRKIKGNVLNKVNNSNDEIKEVQEGFKMAFNEKQGTGYASFRNTVVPSAGKTGTAEVFQDGEPRVNSTYIGYAPVDDPKLSFSIVYTNQPVPPPWLNGGDLGRDVINYYFKDKDNKKDDSQSNNEEKED,failed
9,TINSKFQSDVSAALKKYMGTDLTTGGYAAVMNPKTGGVYAMAGWDRNVKTGKLTQNDLAAIQDPIVMGSAVKPAMVSMALQAGVITPTSSTQDDQIIKLAGTAEKHSDFNPTGVKIPLTAEQALEDSSNTYMIQLALKMNGTPYVSGMSLNVSSNIWQKMRNGFGEFGLGSRTGIDLPGETAGYKGSITGSLASSFIDEAFGQYDTYSVIQMARFVSTIANGGYLVQPKVVASVLKSGKNGVRSSVASEVSPTIQGYVKMNNAQWNVIKTGMWDVANGSSQYNTGGTLIHELSPKVAAKTGTAESFVDGQQTQNDTLIMYSPYAPFAIAIAYVGDKVDSFGAVEKAAAAIYNAFWKDVMPKPND,failed
10,TKIKSVRTRVWNWTGPTVPPQGNFCTNASDALWIQGDAMASFRFHQWLTCEVETEDGTIGIGNAALAPNVVKQAIDEWYAPLVIGEDPFDYAYLWEKMYRRTHAWGRKGIGMTAISAIDIAIWDLMGKLVGKPVFKLLGGRTKEKIPVYYSKLYADSIPAMQAEAEEAQKHGYQGYKTRFGYGPKDGPAGMRENLKRVEALREVLGYDVDLMLECYMGWNLDYTKRMLPKLERFEPRWLEEPVIADDVAGYAELNAMGIVPISGGEHEFSVMGCAELINRKAVSVLQYDTNRVGGITAAQKINAIAEAAQIIVIPHAGQMHNYHLTMANMNCPISEYFPVFDVEVGNELFYYIFDGDPEAVDGYLQLDDDTPGLGITISDAHLKHFEITE,not failed
11,TKTTTQGAKSGVFDTVDEAVQAAVIAQNCYKEKSLEERRNVVKAIREALYPEIETIATRAVAETGMGNVTDKILKNTLAIEKTPGVEDLYTEVATGDNGMTLYELSPYGVIGAVAPSTNPTETLICNSIGMLAAGNAVFYSPHPGAKNISLWLIEKLNTIVRDSCGIDNLIVTVAKPSIQAAQEMMNHPKVPLLVITGGPGVVLQAMQSGKKVIGAGAGNPPSIVDETANIEKAAADIVDGASFDHNILCIAE,not failed
12,TLPGRISRERRGHLLLLGLDRVAKRNAFDLPMLDDLVAALGEYEADDQLRCALLFAHGEHFTAGLDLANVGETFRQGWKLPEGAVDPWGTFGGRRPSKPLVVAVQGYCYTIGIELMLAADINLCASNARFAQLEVQRGILPFGGATLRMHQVAGWGNAMRWLLTGDEFDAHEAYRLGLVQEVTAPEDLLDHAIALAERVAAQAPLGVRATLGSARQALLEGEAVAAAALPEAARRLLDSEDAKEGLRALQERRPGRFE,failed
13,TPGRGSRVTDQGICPKHQEALKLFCEVDEEAICVVCRESRSHKQHSVVPL,not failed
14,TPIINDPETVKLFLLTELQHEEREVFMVLFLDNQHRLIKKERLFLGTIYVSAVYPREIIKEALYCNAAALILAHNHPSGITEPSYSDQLITKKIQDAAELMEIRVLDHLIVGKSDCYSFAENCLL,failed
15,TPSRVEAFDNSNIHGTDPVSAMVTFLDGKPSKNDYRKYKIKTVEGPDDYATMREVIRRRYWRVLKEGLPMPDLILIDGGKGQIDSAKDVLTNELGLDIPVAGLAKDDKHRTSQLLFGDPLEIVPLERNSQEFYLLQRMQDEVHRFAITFHRQLRSKTGFQSILDGIPG,failed
16,TQNLREKQEIAKRAACDIQDHECIFLDAGSSTFELIQYIEAKDITVVTNGMTHVEELLKHGIKTLMVGGQVKPTTMATVGANALETLRRYCFDRAFIGMNGIDVKYGLTTPDEQEALIKETAMKLSNHKYVLVDQSKFNQIYFARVSILDGLSIITSQKAMQSKMTEAYMNEFNFIGGKS,failed
17,TQSNLYSFLKAISNRFSQYNYSSILCVTSISFDIFILETLFPIFMGKTCVFASDEEIEDISKLTQLIRIYQVDTIQSTPSRWGIFTEDEQLMTLLKERLKLVLVGGEKLTKNIAEKLLSIGGKLINLYGPTEATVWAFASEVTDPNQIYLGEP,failed
18,TRMAPVIMVPGSSASQNRFDSLITELGKETPKKHSVLKLTVQTDGTIKYSGSIAANDNEPFIVIGFANNRDGKANIDKQAVWLNTAFKALVKTYHFNHFYALGHSNGGLIWTLFLERYLKESPKVHIDRLMTIASPYNMESTSTTAKTSMFKELYRYRTGLPESLTVYSIAGTENYTSDGTVPYNSVNYGKYIFQDQVKHFTEITVTGANTAHSDLPQNKQIVSLIRQYLLAETMPDK,not failed
19,TRMAPVIMVPGSSASQNRFDSLITELGKETPKKHSVLKLTVQTDGTIKYSGSIAANDNEPFIVIGFANNRDGKANIDKQAVWLNTAFKALVKTYHFNHFYALGHSNGGLIWTLFLERYLKESPKVHIDRLMTIASPYNMESTSTTAKTSMFKELYRYRTGLPESLTVYSIAGTENYTSDGTVPYNSVNYGKYIFQDQVKHFTEITVTGANTAHSDLPQNKQIVSLIRQYLLAETMPDKVRQKNAQRVQN,not failed
20,TVLYVHGGAWFQDPLENHFEYLDLLVDALDARVIMPVYPKIPHRDYRTTFELLTKIYKRLLTKIDEPENLVIIGDSAGGQIALAFAQMLKKEQLSQPGHIVLISPVLDATFKNPEARKYEKEDPMLGIDGSKYLVELWAGDAPLDDYKMSPMNGDLEGLGHITLTVGTKETLYPDAVKFSHMLNDKGIKHQFIPGYNLFHIYPLFPIPERQRFLEQLKKII,failed
21,VAARPPALCKGCSHRDVYDALNEVLTEYPNGRVFSDIGCYTLGALPPYEAINSCVDMGASITMAKGAADAGLFPAVSVIGDSTFTHSGITGLLDAINENSNITVIISDNESISMTGGQHSSAYGKVEAICRGIGVDPDHIRELLPVPKNHDELCSIIREEINYEGVSVIIPRRVCIQKHARDAKAAKRAKAKE,failed
22,VADASDPIRPLVEALNAEAPLKLWSVLVTCLGDVSRDGVIEVSGVALSSFVERMGLQPQAMRVALHRLKRDGWVESRRLGRVGFHRLSDSALTQTRAVAGRIYGPGAGPAPWHLAGMPPDAPDGLSLLPDTLSATPISRRFALICGPLEDVPEDWLLTAPSGRGLPVWVQDVVVEAGCEAEFKALERTLAQIDKVPDTRLERFTLRVLVLHAWRRLILRSSPAAEAALGGARAEISCRARVHQLLDQLGSVEPDWDLPATEDAAS,not failed
23,VALCVLRRSDGRVVLENTLSQQWLGNGSERDQLCSGWIEQAFDPARPNSSDYFETADGRHLYLSSAPTRYNGEDVLFCAFSDISARKQIEAALEEAKRLADTANEAKTLFLATMSHEIRTPLYGVLGTLELLSRTQ,failed
24,VARTAEEQANHDLVIEMYNKVLIAMDSSAVDRYIAPGYVQHSSLAEPSVEALKGFLDRVRAESPDARQTIHRSFVDGDHVITHTHVERWPGDAGLAVVDIFRVEGGMIVEHWDVIQDVPANPVNPNSMF,not failed
25,VDKINPDLRVHLRLDRGEAILSLDLSGHSLHQRGYRLQQGAAPLKENLAAAILIRAGWPRIAAEGGALADPMCGVGTFLVEAGMIAADIAPNIKRERWGFSAWLGHVPTLWRKLHDEALARAEAGLAKTPSWIRGYEADPRLIQPGRNNIERAGLSDWIKVYQGEVATFEPRPDQNQKGLVICNPPYGERLGDEASLLYLYQNLGERLRQACLNWEAAVFTGAPDLGKRMGIRSHKQYSFWNGALPCKLLLIKVTPDQF,failed
26,VEGPCEAKIECSDNGDGTCSVSYLPTKPGEYFVNILFEEVHIPGSPFKADIEMPFDPSKVVASGPGLEHGKVGEAGLLSVNCSEAGPGALGLEAVSDSGTKAEVSIQNNKDGTYAVTYVPLTAGMYTLTMKYGGELVPHFPARVKVEPAVDTSRIKVFGPGIEGKDVFREATTDFTVDSRPLTQVGGDHIKAHIANPSGASTECFVTDNADGTYQVEYTPFEKGLHVVEVTYDDVPIPNSPFKVAVTEGCQPSRVQAQGPGLKEAFTNKPNVFTVVTRGAGIGGLGITVEGPSESKINCRDNKDGSCSAEYIPFAPGDYDVNITYGGAHIPGSPFR,failed
27,VEVESFLVHPGDLLQLRCRLRDDVQSINWLRDGVQLAESNRTRITGEEVEVQDSVPADSGLYACVTSSPSGSDTTYFSVNVSDALP,not failed
